Target: the molecule itself
Test: zonal velocity sedimentation in a glycerol gradient

B1: CshA-His6 (natural protein, S. aureus, UniProt Q2FWH5 1-506, looked up)
chain: MQNFKELGISDNTVQSLESMGFKEPTPIQKDSIPYALQGIDILGQAQTGTGKTGAFGIPLIEKVVGKQGVQSLILAPTRELAMQVAEQLREFSRGQGVQVVTVFGGMPIERQIKALKKGPQIVVGTPGRVIDHLNRRTLKTDGIHTLILDEADEMMNMGFIDDMRFIMDKIPAVQRQTMLFSATMPKAIQALVQQFMKSPKIIKTMNNEMSDPQIEEFYTIVKELEKFDTFTNFLDVHQPELAIVFGRTKRRVDELTSALISKGYKAEGLHGDITQAKRLEVLKKFKNDQINILVATDVAARGLDISGVSHVYNFDIPQDTESYTHRIGRTGRAGKEGIAVTFVNPIEMDYIRQIEDANGRKMSALRPPHRKEVLQAREDDIKEKVENWMSKESESRLKRISTELLNEYNDVDLVAALLQELVEANDEVEVQLTFEKPLSRKGRNGKPSGSRNRNSKRGNPKFDSKSKRSKGYSSKKKSTKKFDRKEKSSGGSRPMKGRTFADHQK
With B1 as the protein, how does the “stoichiometry N” value read?
The value was 2.

Reference: article PMC4615653 (RNA Biology, 2015)
